Reference: article doi:10.1101/2025.07.10.664112 (bioRxiv, 2025)
“And” between values parts separate entries of the source, which are not always exact repeats. Equal entries are not always repeated.

Target: the molecule itself
Assay: mass photometry

B1: Heterogeneous nuclear ribonucleoprotein A2/B1 (hnRNPA2B1), full length, tag-free (natural protein, human, UniProt P22626 1-353, looked up)
chain: MEKTLETVPLERKKREKEQFRKLFIGGLSFETTEESLRNYYEQWGKLTDCVVMRDPASKRSRGFGFVTFSSMAEVDAAMAARPHSIDGRVVEPKRAVAREESGKPGAHVTVKKLFVGGIKEDTEEHHLRDYFEEYGKIDTIEIITDRQSGKKRGFGFVTFDDHDPVDKIVLQKYHTINGHNAEVRKALSRQEMQEVQSSRSGRGGNFGFGDSRGGGGNFGPGPGSNFRGGSDGYGSGRGFGDGYNGYGGGPGGGNFGGSPGYGGGRGGYGGGGPGYGNQGGGYGGGYDNYGGGNYGSGNYNDFGNYNQQPSNYGPMKSGNFGGSRNMGGPYGGGNYGPGGSGGSGGYGGRSRY
- stoichiometry N: 2 and 4
